The record followed here is article PMC3760018 (European journal of immunology, 2013).

A word on the stoichiometry N: it is a count of units in the complex or per binding partner.

Sequences and labels used below:
B1: recombinant C4BP α-chain WT (natural protein, human, UniProt P04003 49-597, looked up)
chain: NCGPPPTLSFAAPMDITLTETRFKTGTTLKYTCLPGYVRSHSTQTLTCNSDGEWVYNTFCIYKRCRHPGELRNGQVEIKTDLSFGSQIEFSCSEGFFLIGSTTSRCEVQDRGVGWSHPLPQCEIVKCKPPPDIRNGRHSGEENFYAYGFSVTYSCDPRFSLLGHASISCTVENETIGVWRPSPPTCEKITCRKPDVSHGEMVSGFGPIYNYKDTIVFKCQKGFVLRGSSVIHCDADSKWNPSPPACEPNSCINLPDIPHASWETYPRPTKEDVYVVGTVLRYRCHPGYKPTTDEPTTVICQKNLRWTPYQGCEALCCPEPKLNNGEITQHRKSRPANHCVYFYGDEISFSCHETSRFSAICQGDGTWSPRTPSCGDICNFPPKIAHGHYKQSSSYSFFKEEIIYECDKGYILVGQAKLSCSYSHWSAPAPQCKALCRKPELVNGRLSVDKDQYVEPENVTIQCDSGYGVVGPQSITCSGNRTWYPEVPKCEWETPEGCEQVLTGKRLMQCLPNPEDVKMALEVYKLSLEIEQLELQRDSARQSTLDKEL
B2: recombinant C4BP α-chain R120H (natural protein, human, UniProt P04003 49-597, looked up)
chain: NCGPPPTLSFAAPMDITLTETRFKTGTTLKYTCLPGYVRSHSTQTLTCNSDGEWVYNTFCIYKRCRHPGELHNGQVEIKTDLSFGSQIEFSCSEGFFLIGSTTSRCEVQDRGVGWSHPLPQCEIVKCKPPPDIRNGRHSGEENFYAYGFSVTYSCDPRFSLLGHASISCTVENETIGVWRPSPPTCEKITCRKPDVSHGEMVSGFGPIYNYKDTIVFKCQKGFVLRGSSVIHCDADSKWNPSPPACEPNSCINLPDIPHASWETYPRPTKEDVYVVGTVLRYRCHPGYKPTTDEPTTVICQKNLRWTPYQGCEALCCPEPKLNNGEITQHRKSRPANHCVYFYGDEISFSCHETSRFSAICQGDGTWSPRTPSCGDICNFPPKIAHGHYKQSSSYSFFKEEIIYECDKGYILVGQAKLSCSYSHWSAPAPQCKALCRKPELVNGRLSVDKDQYVEPENVTIQCDSGYGVVGPQSITCSGNRTWYPEVPKCEWETPEGCEQVLTGKRLMQCLPNPEDVKMALEVYKLSLEIEQLELQRDSARQSTLDKEL
B3: recombinant C4BP α-chain I300T (natural protein, human, UniProt P04003 49-597, looked up)
chain: NCGPPPTLSFAAPMDITLTETRFKTGTTLKYTCLPGYVRSHSTQTLTCNSDGEWVYNTFCIYKRCRHPGELRNGQVEIKTDLSFGSQIEFSCSEGFFLIGSTTSRCEVQDRGVGWSHPLPQCEIVKCKPPPDIRNGRHSGEENFYAYGFSVTYSCDPRFSLLGHASISCTVENETIGVWRPSPPTCEKITCRKPDVSHGEMVSGFGPIYNYKDTIVFKCQKGFVLRGSSVIHCDADSKWNPSPPACEPNSCTNLPDIPHASWETYPRPTKEDVYVVGTVLRYRCHPGYKPTTDEPTTVICQKNLRWTPYQGCEALCCPEPKLNNGEITQHRKSRPANHCVYFYGDEISFSCHETSRFSAICQGDGTWSPRTPSCGDICNFPPKIAHGHYKQSSSYSFFKEEIIYECDKGYILVGQAKLSCSYSHWSAPAPQCKALCRKPELVNGRLSVDKDQYVEPENVTIQCDSGYGVVGPQSITCSGNRTWYPEVPKCEWETPEGCEQVLTGKRLMQCLPNPEDVKMALEVYKLSLEIEQLELQRDSARQSTLDKEL
B4: recombinant C4BP α-chain I126T (natural protein, human, UniProt P04003 49-597, looked up)
chain: NCGPPPTLSFAAPMDITLTETRFKTGTTLKYTCLPGYVRSHSTQTLTCNSDGEWVYNTFCIYKRCRHPGELRNGQVETKTDLSFGSQIEFSCSEGFFLIGSTTSRCEVQDRGVGWSHPLPQCEIVKCKPPPDIRNGRHSGEENFYAYGFSVTYSCDPRFSLLGHASISCTVENETIGVWRPSPPTCEKITCRKPDVSHGEMVSGFGPIYNYKDTIVFKCQKGFVLRGSSVIHCDADSKWNPSPPACEPNSCINLPDIPHASWETYPRPTKEDVYVVGTVLRYRCHPGYKPTTDEPTTVICQKNLRWTPYQGCEALCCPEPKLNNGEITQHRKSRPANHCVYFYGDEISFSCHETSRFSAICQGDGTWSPRTPSCGDICNFPPKIAHGHYKQSSSYSFFKEEIIYECDKGYILVGQAKLSCSYSHWSAPAPQCKALCRKPELVNGRLSVDKDQYVEPENVTIQCDSGYGVVGPQSITCSGNRTWYPEVPKCEWETPEGCEQVLTGKRLMQCLPNPEDVKMALEVYKLSLEIEQLELQRDSARQSTLDKEL
B5: recombinant C4BP α-chain I224T (natural protein, human, UniProt P04003 49-597, looked up)
chain: NCGPPPTLSFAAPMDITLTETRFKTGTTLKYTCLPGYVRSHSTQTLTCNSDGEWVYNTFCIYKRCRHPGELRNGQVEIKTDLSFGSQIEFSCSEGFFLIGSTTSRCEVQDRGVGWSHPLPQCEIVKCKPPPDIRNGRHSGEENFYAYGFSVTYSCDPRFSLLGHASISCTVENETTGVWRPSPPTCEKITCRKPDVSHGEMVSGFGPIYNYKDTIVFKCQKGFVLRGSSVIHCDADSKWNPSPPACEPNSCINLPDIPHASWETYPRPTKEDVYVVGTVLRYRCHPGYKPTTDEPTTVICQKNLRWTPYQGCEALCCPEPKLNNGEITQHRKSRPANHCVYFYGDEISFSCHETSRFSAICQGDGTWSPRTPSCGDICNFPPKIAHGHYKQSSSYSFFKEEIIYECDKGYILVGQAKLSCSYSHWSAPAPQCKALCRKPELVNGRLSVDKDQYVEPENVTIQCDSGYGVVGPQSITCSGNRTWYPEVPKCEWETPEGCEQVLTGKRLMQCLPNPEDVKMALEVYKLSLEIEQLELQRDSARQSTLDKEL
B6: recombinant C4BP α-chain D284E (natural protein, human, UniProt P04003 49-597, looked up)
chain: NCGPPPTLSFAAPMDITLTETRFKTGTTLKYTCLPGYVRSHSTQTLTCNSDGEWVYNTFCIYKRCRHPGELRNGQVEIKTDLSFGSQIEFSCSEGFFLIGSTTSRCEVQDRGVGWSHPLPQCEIVKCKPPPDIRNGRHSGEENFYAYGFSVTYSCDPRFSLLGHASISCTVENETIGVWRPSPPTCEKITCRKPDVSHGEMVSGFGPIYNYKDTIVFKCQKGFVLRGSSVIHCDAESKWNPSPPACEPNSCINLPDIPHASWETYPRPTKEDVYVVGTVLRYRCHPGYKPTTDEPTTVICQKNLRWTPYQGCEALCCPEPKLNNGEITQHRKSRPANHCVYFYGDEISFSCHETSRFSAICQGDGTWSPRTPSCGDICNFPPKIAHGHYKQSSSYSFFKEEIIYECDKGYILVGQAKLSCSYSHWSAPAPQCKALCRKPELVNGRLSVDKDQYVEPENVTIQCDSGYGVVGPQSITCSGNRTWYPEVPKCEWETPEGCEQVLTGKRLMQCLPNPEDVKMALEVYKLSLEIEQLELQRDSARQSTLDKEL
B7: recombinant C4BP α-chain G423E (natural protein, human, UniProt P04003 49-597, looked up)
chain: NCGPPPTLSFAAPMDITLTETRFKTGTTLKYTCLPGYVRSHSTQTLTCNSDGEWVYNTFCIYKRCRHPGELRNGQVEIKTDLSFGSQIEFSCSEGFFLIGSTTSRCEVQDRGVGWSHPLPQCEIVKCKPPPDIRNGRHSGEENFYAYGFSVTYSCDPRFSLLGHASISCTVENETIGVWRPSPPTCEKITCRKPDVSHGEMVSGFGPIYNYKDTIVFKCQKGFVLRGSSVIHCDADSKWNPSPPACEPNSCINLPDIPHASWETYPRPTKEDVYVVGTVLRYRCHPGYKPTTDEPTTVICQKNLRWTPYQGCEALCCPEPKLNNGEITQHRKSRPANHCVYFYGDEISFSCHETSRFSAICQGDGTWSPRTPSCEDICNFPPKIAHGHYKQSSSYSFFKEEIIYECDKGYILVGQAKLSCSYSHWSAPAPQCKALCRKPELVNGRLSVDKDQYVEPENVTIQCDSGYGVVGPQSITCSGNRTWYPEVPKCEWETPEGCEQVLTGKRLMQCLPNPEDVKMALEVYKLSLEIEQLELQRDSARQSTLDKEL

One series deals with recombinant C4BP α-chain P4Q (human) (UniProt P04003). In words: non-reducing SDS-PAGE.
For “recombinant C4BP α-chain P4Q (from UniProt P04003 49-597) (natural protein)”, the stoichiometry N is 6.

Another series deals with the molecule itself. As to the kind of experiment: non-reducing SDS-PAGE.
For the molecule B1, the “stoichiometry N” value was found to be 6.

In the case of B2, the “stoichiometry N” value turned out to be 6.

Consider B3, for which the “stoichiometry N” value was determined as 6.

Take B4: the “stoichiometry N” value is 6.

For the molecule B5, the “stoichiometry N” value is 6.

Regarding B6, the “stoichiometry N” value is 6.

Regarding B7, the “stoichiometry N” value came out at 6.
